Measured values from patent publication US20090149343.

Biological target: 48 discrete histone H3 peptides containing a wide range of histone modifications at defined residues (micro-array bound)

B1: recombinant human histone methyl-transferase SET 7/9 (protein)
chain: MDSDDEMVEEAVEGHLDDDGLPHGFCTVTYSSTDRFEGNFVHGEKNGRGKFFFFDGSTLEGYYVDDALQGQGVYTYEDGGVLQGTYVDGELNGPAQEYDTDGRLIFKGQYKDNIRHGVCWIYYPDGGSLVGEVNEDGEMTGEKIAYVYPDERTALYGKFIDGEMIEGKLATLMSTEEGRPHFELMPGNSVYHFDKSTSSCISTNALLPDPYESERVYVAESLISSAGEGLFSKVAVGPNTVMSFYNGVRITHQEVDSRDWALNGNTLSLDEETVIDVPEPYNHVSKYCASLGHKANHSFTPNCIYDMFVHPRFGPIKCIRTLRAVEADEELTVAYGYDHSPPGKSGPEAPEWYQVELKAFQATQQK
SET 7/9 dependent methylation of micro-array bound histone peptides, detected by anti-H3K4me1 antibody: also detects a large number of newly created additional sites containing this epitope after HMTase incubation
